The target of the assay is HIV-1 Env of virus AT1 with the I371V mutation (HIV-1).

In turn, VRC01 (antibody) yielded an IC50 of neutralisation of the virus in TZM-bl cells (luciferase reporter) of 0.0724 µg/mL.

Values taken from paper PMC5524822.
